Test results reported in FireProtDB (doi:10.1007/s00775-020-01777-0).

B1: Cytochrome c-553, B8C6L5 (parent)
chain: MKLTIVAALIASASAWTTPKSFESVKAAVAGAAVTAGVAVSPAFAGDVGAGEQIFNANCAACHAGGQNVIMPDKTLEKEALEQYLAGGRNEKAVMTQVTNGKNAMPAFGGRLSDEDIANVASYVIATSEAGWD

Variants of: B1
Conditions: Thalassiosira pseudonana; pH 7.4; Thermal; UV/Vis spectroscopy; HEPES; transition: 2; reversible: > 90% (Yes); whole UniProt chain shown

Variant | Tm [°C] | unfolding enthalpy (van 't Hoff) [kcal/mol]
A93S A126S | 32.2 | 38.2
A86S | 38.9 | 43.7
A126S | 35.1 | 40.8
A93S | 35.4 | 45.9
